No end group written: not given here. *: point of attachment. Biotin = O=C1N[C@H]2[C@H](CS[C@H]2CCCCC(=O)*)N1
Tests used:
[1] = biological target: human alpha-synuclein monomer (human, UniProt P37840 1-140); experiment: ELISA, coated human alpha-synuclein
asyn_113-127 = biological target: T1, asyn_113-127 (human); experiment: Ala-scan peptide ELISA, row A, run 1
T1 construct: also called pep1
T1 peptide: Biotin-LEDMPVDPDNEAYEM

asyn_113-127_113A = biological target: T2, asyn_113-127_113A (human); experiment: Ala-scan peptide ELISA, row A, run 1
T2 construct: substitution is already in the entry; also called pep2
T2 peptide: Biotin-AEDMPVDPDNEAYEM

asyn_113-127_114A = biological target: T3, asyn_113-127_114A (human); experiment: Ala-scan peptide ELISA, row A, run 1
T3 construct: substitution is already in the entry; also called pep3
T3 peptide: Biotin-LADMPVDPDNEAYEM

asyn_113-127_115A = biological target: T4, asyn_113-127_115A (human); experiment: Ala-scan peptide ELISA, row A, run 1
T4 construct: substitution is already in the entry; also called pep4
T4 peptide: Biotin-LEAMPVDPDNEAYEM

asyn_113-127_116A = biological target: T5, asyn_113-127_116A (human); experiment: Ala-scan peptide ELISA, row A, run 1
T5 construct: substitution is already in the entry; also called pep5
T5 peptide: Biotin-LEDAPVDPDNEAYEM

asyn_113-127_117A = biological target: T6, asyn_113-127_117A (human); experiment: Ala-scan peptide ELISA, row A, run 1
T6 construct: substitution is already in the entry; also called pep6
T6 peptide: Biotin-LEDMAVDPDNEAYEM

asyn_113-127_118A [2] = biological target: T7, asyn_113-127_118A (human); experiment: Ala-scan peptide ELISA, row A, run 1
T7 construct: substitution is already in the entry; also called pep7
T7 peptide: Biotin-LEDMPADPDNEAYEM

asyn_113-127_119A = biological target: T8, asyn_113-127_119A (human); experiment: Ala-scan peptide ELISA, row A, run 1
T8 construct: substitution is already in the entry; also called pep8
T8 peptide: Biotin-LEDMPVAPDNEAYEM

asyn_113-127_120A [3] = biological target: T9, asyn_113-127_120A (human); experiment: Ala-scan peptide ELISA, row A, run 1
T9 construct: substitution is already in the entry; also called pep9
T9 peptide: Biotin-LEDMPVDADNEAYEM

asyn_113-127_121A [4] = biological target: T10, asyn_113-127_121A (human); experiment: Ala-scan peptide ELISA, row A, run 1
T10 construct: substitution is already in the entry; also called pep10
T10 peptide: Biotin-LEDMPVDPANEAYEM

asyn_113-127_122A [5] = biological target: T11, asyn_113-127_122A (human); experiment: Ala-scan peptide ELISA, row A, run 1
T11 construct: substitution is already in the entry; also called pep11
T11 peptide: Biotin-LEDMPVDPDAEAYEM

asyn_113-127_123A [6] = biological target: T12, asyn_113-127_123A (human); experiment: Ala-scan peptide ELISA, row A, run 1
T12 construct: substitution is already in the entry; also called pep12
T12 peptide: Biotin-LEDMPVDPDNAAYEM

asyn_113-127_124G [7] = biological target: T13, asyn_113-127_124G (human); experiment: Ala-scan peptide ELISA, row A, run 1
T13 construct: substitution is already in the entry; also called pep13
T13 peptide: Biotin-LEDMPVDPDNEGYEM

asyn_113-127_124P = biological target: T14, asyn_113-127_124P (human); experiment: Ala-scan peptide ELISA, row A, run 1
T14 construct: substitution is already in the entry; also called pep14
T14 peptide: Biotin-LEDMPVDPDNEPYEM

asyn_113-127_125A = biological target: T15, asyn_113-127_125A (human); experiment: Ala-scan peptide ELISA, row A, run 1
T15 construct: substitution is already in the entry; also called pep15
T15 peptide: Biotin-LEDMPVDPDNEAAEM

asyn_113-127_126A = biological target: T16, asyn_113-127_126A (human); experiment: Ala-scan peptide ELISA, row A, run 1
T16 construct: substitution is already in the entry; also called pep16
T16 peptide: Biotin-LEDMPVDPDNEAYAM

asyn_113-127_127A [8] = biological target: T17, asyn_113-127_127A (human); experiment: Ala-scan peptide ELISA, row A, run 1
T17 construct: substitution is already in the entry; also called pep17
T17 peptide: Biotin-LEDMPVDPDNEAYEA

[9] = biological target: T18, biotinylated human alpha-synuclein (human, UniProt P37840 1-140); experiment: Ala-scan peptide ELISA, row A, run 1
asyn_113-127_118A [10] = biological target: T7, asyn_113-127_118A; experiment: Ala-scan peptide ELISA, row G, run 2
asyn_113-127_120A [11] = biological target: T9, asyn_113-127_120A; experiment: Ala-scan peptide ELISA, row G, run 2
asyn_113-127_121A [12] = biological target: T10, asyn_113-127_121A; experiment: Ala-scan peptide ELISA, row G, run 2
asyn_113-127_122A [13] = biological target: T11, asyn_113-127_122A; experiment: Ala-scan peptide ELISA, row G, run 2
asyn_113-127_123A [14] = biological target: T12, asyn_113-127_123A; experiment: Ala-scan peptide ELISA, row G, run 2
asyn_113-127_124G [15] = biological target: T13, asyn_113-127_124G; experiment: Ala-scan peptide ELISA, row G, run 2
asyn_113-127_127A [16] = biological target: T17, asyn_113-127_127A; experiment: Ala-scan peptide ELISA, row G, run 2
[17] = biological target: T18, biotinylated human alpha-synuclein; experiment: Ala-scan peptide ELISA, row G, run 2
[18] = biological target: alpha-synuclein phosphorylated at serine 129 (human, UniProt P37840 1-140); experiment: SPR (Biacore), antibody captured, p129-Syn injected

- antibody concentration at which ELISA is positive [1]: < 40 ng/mL
- A450 (asyn_113-127): 0.545 OD
- A450 (asyn_113-127_113A): 0.529 OD
- A450 (asyn_113-127_114A): 0.505 OD
- A450 (asyn_113-127_115A): 0.502 OD
- A450 (asyn_113-127_116A): 0.524 OD
- A450 (asyn_113-127_117A): 0.55 OD
- A450 (asyn_113-127_118A [2]): 0.504 OD
- A450 (asyn_113-127_119A): 0.063 OD
- A450 (asyn_113-127_120A [3]): 0.414 OD
- A450 (asyn_113-127_121A [4]): 0.496 OD
- A450 (asyn_113-127_122A [5]): 0.06 OD
- A450 (asyn_113-127_123A [6]): 0.533 OD
- A450 (asyn_113-127_124G [7]): 0.371 OD
- A450 (asyn_113-127_124P): 0.055 OD
- A450 (asyn_113-127_125A): 0.053 OD
- A450 (asyn_113-127_126A): 0.371 OD
- A450 (asyn_113-127_127A [8]): 0.338 OD
- A450 [9]: 0.66 OD
- A450 (asyn_113-127_118A [10]): 0.109 OD
- A450 (asyn_113-127_120A [11]): 0.072 OD
- A450 (asyn_113-127_121A [12]): 0.097 OD
- A450 (asyn_113-127_122A [13]): 0.048 OD
- A450 (asyn_113-127_123A [14]): 0.103 OD
- A450 (asyn_113-127_124G [15]): 0.095 OD
- A450 (asyn_113-127_127A [16]): 0.092 OD
- A450 [17]: 0.152 OD
- Kd [18]: 6.14 nM
B1: 20H4 (antibody, rat IgG2b, V domains shown)
VH: AVQLVESGGGLVQPKESLKISCAASGFTFSNAAMYWVRQAPGKGLELLARIRTKPNNYATYHADSVKGRFTISRDDSQSMVYLHMGNLKTEDTAMYYCTADMATGDYWGPGVMVTVSS
VL: DIQMTQSPPVLSVSVGDRVTLSCKASQNINKNLDWYQQKHGEAPKPLIYSTNNLQTGVPSRFSGSGSGTDYTLTISSLQPEDVATYYCYQYKSAWTFGGGTKLELR
notes: also called clone 20H4; rat 20H4
